Laboratory results taken from paper PMC3627599.

What was measured:
[1] = molecular target: T1, MAZ (Homo sapiens (pGEX-hMAZ), UniProt P56270 1-477); experiment: double-filter binding
T1 sequence: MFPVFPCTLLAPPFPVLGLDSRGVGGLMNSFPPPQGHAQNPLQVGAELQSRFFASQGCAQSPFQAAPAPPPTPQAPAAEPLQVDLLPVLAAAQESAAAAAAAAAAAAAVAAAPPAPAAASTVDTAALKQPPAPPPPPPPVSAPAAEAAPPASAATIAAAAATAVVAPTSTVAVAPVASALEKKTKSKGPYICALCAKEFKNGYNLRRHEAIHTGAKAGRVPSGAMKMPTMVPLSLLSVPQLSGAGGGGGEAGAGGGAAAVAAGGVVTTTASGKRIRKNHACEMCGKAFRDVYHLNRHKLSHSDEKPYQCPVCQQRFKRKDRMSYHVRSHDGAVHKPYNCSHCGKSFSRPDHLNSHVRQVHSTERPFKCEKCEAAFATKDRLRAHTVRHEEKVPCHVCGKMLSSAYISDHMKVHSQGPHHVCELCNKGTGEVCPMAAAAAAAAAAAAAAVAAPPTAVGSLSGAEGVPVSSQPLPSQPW

[2] = molecular target: T1, MAZ; experiment: competition

For GCGGTGTGGGAAGAGGGAAGAGGGGGAGGCAG (structured_DNA) [32R-3n], the Kd [1] was 320 ± 2 nM.

GCGGTGTGGGAAGAGGGAAGAGGGGGAGGCAG (XNA, AMANY inserted after G10 and after A21; 2 LNA at 3' end) [3044]: binds [2].
